This series can be described thus: yeast display, Sf9 membrane polyspecificity reagent, FACS + sequencing; frameworks hold sequencing errors. The method, boiled down: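 A synthetic nanobody library was expressed on Saccharomyces cerevisiae BJ5465 by galactose induction for 36–48 hours. The library was stained for 1 hour at 4 °C with 10% biotinylated, detergent-solubilized Sf9 membrane reagent and enriched with streptavidin microbeads before FACS. Low and high (top ~1%) gates were set on anti-HA fluorescence for expression and streptavidin fluorescence for reagent binding, and each polyreactivity label reflects the gate of origin.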
With “QVQLVESGGGLVQAGGSLRLSCAASGSIFRWYTMGWYRQAPGKERELVAAISRSGGSTYYADSVKGRFTISRDNAKNTVYLQMNRLKPEDTAVYYCAADKFRHPYWDRYIYFHYDYWGQGTQVTVSS”, the “polyreactivity (PSR sort gate)” value is recorded as “low polyreactivity”.

Consider “QVQLVESGGGLVQAGGSLRLSCAASGSIFRYAMGWYRQAPGKEREFVAAITSRGGTTYYADSVKGRFTISRDNAKNTVYLLMNSLKPEDTAVYYCYAHRYATAGSWVVRHDYWGQGTQGTVSS”, for which the “polyreactivity (PSR sort gate)” value is given as “high polyreactivity”.

As to “QVQLVESGGGLVQAGGSLRLSCAASGSIFRYNAMGWYRQAPGKERELVASISISDGSTYYADSVKGRFTISRDNAKNTVYLQMKSLKPEDTAVYYCAARTRDFYYPYDYWGQGTQVTVSS”, the “polyreactivity (PSR sort gate)” value is on record as “low polyreactivity”.

Regarding “QVQLVESGGGLVQAGGSLRLSCAASGSIFRYNTMGWYRQAPGKERELVAAITSSGGRTYYADSVKGRFTISRDNAKNTVYLQMNSLKPEDTAVYYCAARRSFYGRVYDDQYDYWGQGTQVTVSS”, the “polyreactivity (PSR sort gate)” value is given as “high polyreactivity”.

For “QVQLVESGGGLVQAGGSLRLSCAASGSIFRYNTMGWYRQAPGKERELVARISSGGSTYYADSVKGRFTISRDNAKNTVYLQMNSLKPEDTAVYYCAAVSRHRGWDRYYWGQGTQVTVSS”, the “polyreactivity (PSR sort gate)” value was “high polyreactivity”.

With “QVQLVESGGGLVQAGGSLRLSCAASGSIFRYNTMGWYRQATGKERELDATITRRGGSTYYADSVKGRFTISRDNAKNTVYLQMNSLKPEDTAVYYCNADNFGGPFNYWGQGTQVTVSS”, the “polyreactivity (PSR sort gate)” value was “low polyreactivity”.

As for “QVQLVESGGGLVQAGGSLRLSCAASGSIFRYYAMGWYRPATGKERELVADITSSGGSTYYADSVKGRFTISRDNPKNTVYLQMNSLKREDTAVYYCASLYWFYVYPFTEYDYWGQGTQVTVSS”, the “polyreactivity (PSR sort gate)” value is on record as “low polyreactivity”.

For the sequence “QVQLVESGGGLVQAGGSLRLSCAASGSIFRYYAMGWYRQAPGKERELVAAITASSGNTYYADSVKGRFTISRDNAKNTVYLQMNRLKPEDTSVYYCSKQPGISYRHYDYWGLGTQVTVSS”, the “polyreactivity (PSR sort gate)” value is given as “high polyreactivity”.

As to “QVQLVESGGGLVQAGGSLRLSCAASGSIFRYYAMGWYRQAPGKERELVATISWRGGRTNYADSVKGRFTISRDNAKNTVYLQMNSLKPEDTAVYYCAADPVRRPWGVVGGDYWGQGTQVTVSS”, the “polyreactivity (PSR sort gate)” value is recorded as “high polyreactivity”.

“QVQLVESGGGLVQAGGSLRLSCAASGSIFRYYVMGWYRQAPGKEREFVAAISYRGGSTYYADSVKGRFTISRDNAKNTVYLEMNSLKPEDTAVYFCYAVHYRSFWTPGSNDYWGQGTQVTVSS”: the “polyreactivity (PSR sort gate)” value is on record as “high polyreactivity”.

Take “QVQLVESGGGLVQAGGSLRLSCAASGSIFRYYVMGWYRQAPGKERELVAAITGGGGSTYYADSVKGRFTISRDNAKNTVYLQMNSLKPEDTAVYYCATATYVGVYWEYDYWGQGTQVTVSS”: the “polyreactivity (PSR sort gate)” value was “low polyreactivity”.

As to “QVQLVESGGGLVQAGGSLRLSCAASGSIFRYYVMGWYRQAPGKERELVASISYSVGRTYYADSVKGRFTISRDNAKNTVYLQMNSLKPEVTAVYYCAADRYWPYYSAYYTSYRMDYWGKGTQVTVSS”, the “polyreactivity (PSR sort gate)” value is “high polyreactivity”.

Turning to “QVQLVESGGGLVQAGGSLRLSCAASGSIFRYYVTGWYRQAPGKERELVATISSSGGRTYYADSVKGRFTISRDNAKNTVYLQMNSLKPEDTAVYYCNARTSPYSGYSGRYYWGQGTQVTVSS”, the “polyreactivity (PSR sort gate)” value is given as “high polyreactivity”.

Turning to “QVQLVESGGGLVQAGGSLRLSCAASGSIFSANAMGWYRQAPGKERELLAAISSSGNTNYADSVKGRFTISRDNAKNTVYLQMNSLKPEDTAVYYCAVELKQVTPGLGYITLDYWGQGTQVTVSS”, the “polyreactivity (PSR sort gate)” value is recorded as “low polyreactivity”.

As to “QVQLVESGGGLVQAGGSLRLSCAASGSIFSAYAMGWYRQAPGKEREIVASITWSGGSTYYADSVKGRFTISRDNAKNTVYLQMNSLKPEDTAVYYCAAVYVTWYNNYEYWGQGTQVTVSS”, the “polyreactivity (PSR sort gate)” value is “high polyreactivity”.

Take “QVQLVESGGGLVQAGGSLRLSCAASGSIFSAYVMGWYRQAPGKERELVAAITRSGGSTYYADSVKGRFTISRDNAKHTVYLQMNSLKPEDTAVYYCAAKSIIRPYAPRRDDMDYWGQGTQVTVSS”: the “polyreactivity (PSR sort gate)” value is reported as “low polyreactivity”.

The values above are taken from the nanobody polyreactivity screen of Harvey et al. (2022).
